{"source": "IntAct's records for PubMed 22193721", "parents": {"B1": {"name": "Beta-adrenergic receptor kinase 1 (Bos taurus (Bovine)), P21146 (parent)", "chain": "MADLEAVLADVSYLMAMEKSKATPAARASKKILLPEPSIRSVMQKYLEDRGEVTFEKIFSQKLGYLLFRDFCLKHLEEAKPLVEFYEEIKKYEKLETEEERLVCSREIFDTYIMKELLACSHPFSKSAIEHVQGHLVKKQVPPDLFQPYIEEICQNLRGDVFQKFIESDKFTRFCQWKNVELNIHLTMNDFSVHRIIGRGGFGEVYGCRKADTGKMYAMKCLDKKRIKMKQGETLALNERIMLSLVSTGDCPFIVCMSYAFHTPDKLSFILDLMNGGDLHYHLSQHGVFSEADMRFYAAEIILGLEHMHNRFVVYRDLKPANILLDEHGHVRISDLGLACDFSKKKPHASVGTHGYMAPEVLQKGVAYDSSADWFSLGCMLFKLLRGHSPFRQHKTKDKHEIDRMTLTMAVELPDSFSPELRSLLEGLLQRDVNRRLGCLGRGAQEVKESPFFRSLDWQMVFLQKYPPPLIPPRGEVNAADAFDIGSFDEEDTKGIKLLDSDQELYRNFPLTISERWQQEVAETVFDTINAETDRLEARKKTKNKQLGHEEDYALGKDCIMHGYMSKMGNPFLTQWQRRYFYLFPNRLEWRGEGEAPQSLLTMEEIQSVEETQIKERKCLLLKIRGGKQFVLQCDSDPELVQWKKELRDAYREAQQLVQRVPKMKNKPRSPVVELSKVPLIQRGSANGL"}, "B2": {"name": "Beta-adrenergic receptor kinase 1 (Bos taurus (Bovine)), P21146 (parent)", "chain": "B1 chain", "partner": "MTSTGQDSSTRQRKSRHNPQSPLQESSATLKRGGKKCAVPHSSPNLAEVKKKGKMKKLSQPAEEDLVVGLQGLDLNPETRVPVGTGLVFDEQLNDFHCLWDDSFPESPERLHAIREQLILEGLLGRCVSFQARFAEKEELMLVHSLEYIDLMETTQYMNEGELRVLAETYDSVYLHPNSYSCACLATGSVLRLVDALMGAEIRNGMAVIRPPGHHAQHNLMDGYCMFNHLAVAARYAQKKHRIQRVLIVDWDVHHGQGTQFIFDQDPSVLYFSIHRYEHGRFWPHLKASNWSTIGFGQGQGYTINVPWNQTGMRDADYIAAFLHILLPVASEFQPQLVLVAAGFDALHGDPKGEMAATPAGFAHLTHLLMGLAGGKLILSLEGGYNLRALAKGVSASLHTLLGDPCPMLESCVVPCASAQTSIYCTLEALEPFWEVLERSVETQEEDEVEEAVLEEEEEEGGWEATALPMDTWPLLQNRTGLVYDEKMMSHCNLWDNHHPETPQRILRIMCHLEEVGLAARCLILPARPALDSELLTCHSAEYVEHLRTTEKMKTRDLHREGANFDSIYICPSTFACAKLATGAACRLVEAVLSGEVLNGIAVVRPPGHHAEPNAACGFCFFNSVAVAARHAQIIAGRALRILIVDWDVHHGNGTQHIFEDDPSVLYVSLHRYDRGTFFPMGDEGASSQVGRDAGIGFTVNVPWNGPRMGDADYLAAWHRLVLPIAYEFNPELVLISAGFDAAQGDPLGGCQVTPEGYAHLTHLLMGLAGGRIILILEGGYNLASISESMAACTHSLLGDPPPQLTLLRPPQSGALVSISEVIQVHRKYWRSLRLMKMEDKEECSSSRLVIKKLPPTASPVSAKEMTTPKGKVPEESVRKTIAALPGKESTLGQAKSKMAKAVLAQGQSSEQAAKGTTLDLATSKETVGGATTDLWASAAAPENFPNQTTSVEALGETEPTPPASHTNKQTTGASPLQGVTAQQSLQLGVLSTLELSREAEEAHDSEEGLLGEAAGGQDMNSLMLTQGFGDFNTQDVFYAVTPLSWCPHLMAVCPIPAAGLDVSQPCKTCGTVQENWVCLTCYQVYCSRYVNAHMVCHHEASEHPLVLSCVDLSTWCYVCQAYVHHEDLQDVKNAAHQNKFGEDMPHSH"}}, "data": [{"variants_of": "B1", "settings": "with hdac6_human HDAC6, Q9UBN7", "values": [{"variant": "K220R", "effect of a mutation on the interaction": "disrupting interaction"}]}, {"variants_of": "B1", "settings": "with hdac6_human HDAC6, Q9UBN7", "remark": "another data set of the same source", "values": [{"variant": "S670A", "effect of a mutation on the interaction": "decreasing interaction"}]}, {"variants_of": "B2", "settings": "with hdac6_mouse Hdac6, Q9Z2V5", "values": [{"variant": "K220R", "effect of a mutation on the interaction": "increasing interaction"}]}]}
